{"source": "paper PMC3675161", "about": "(Biochemistry, 2013)", "proteins": {"B1": {"name": "cytoplasmic portion of selenoprotein S with its native selenocysteine (cSelS) (domain or fragment, human, UniProt Q9BQE4 52-189, looked up)", "chain": "SARLRALRQRQLDRAAAAVEPDVVVKRQEALAAARLKMQEELNAQVEKHKEKLKQLEEEKRRQKIEMWDSMQEGKSYKGNAKKPQEEDSPGPSTSSVLKRKSDRKPLRGGGYNPLSGEGGGACSWRPGRRGPSSGGUG", "modifications": "selenocysteine at position 188"}}, "biological_target": "the molecule itself", "assay": "SEC"}
{"protein": "B1", "values": [{"measurement": "stoichiometry N", "value": 2}]}
